For experiment [1], the target named is Pf3 coat protein with single cysteine 47C, tethered by its C-terminal end to the AFM tip through a PEG27-linker (phage Pf3) (UniProt P03623). Nature of the experiment: dynamic single-molecule force spectroscopy (DFS) by AFM; Pf3 tethered through PEG27 to the AFM tip, YidC in supported POPE:POPG membranes; contact time 2 ms; pulling velocities 1–25 µm s^–1; Bell-Evans fit, k0 = zero-force transition rate of the bond; room temperature.

For experiment [2] the target is unchanged. Nature of the experiment: FD-AFM-based single-molecule force spectroscopy; as a2, contact time 52 ms.
Experiment [3] shares this target. Nature of the experiment: FD-AFM-based single-molecule force spectroscopy; Pf3 tethered through PEG27 to the AFM tip, YidC in supported POPE:POPG membranes on mica; contact time ≈2 ms; pulling velocity 3–4.5 µm s^–1; room temperature; 150 mM KCl, 20 mM HEPES, pH 7.4.
Experiment [4] has the same target. Put plainly: dynamic single-molecule force spectroscopy (DFS) by AFM; as a5, contact time 52 ms.
Experiment [5] shares this target. Put plainly: FD-AFM-based single-molecule force spectroscopy; as a2, contact time 502 ms.
Experiment [6] shares this target. Put plainly: AFM-based single-molecule force spectroscopy (height clamp mode); Pf3 tethered by its C-terminal end through a PEG27-linker to the AFM tip, held ≈5–10 nm above a supported POPE:POPG membrane with YidC for ≈1–2 s; force-time curves; lifetimes fitted with the Bell model; room temperature; 150 mM KCl, 20 mM HEPES, pH 7.4.
For experiment [7], the target named is Pf3-47C labelled with Atto520 (phage Pf3) (UniProt P03623). Nature of the experiment: FRET or BRET; single-molecule FRET on a confocal FCS setup; proteoliposomes with 1 nM YidC S405C-Atto647N (acceptor) mixed with 1 nM Atto520-labelled Pf3-47C (donor); 300 mM NaCl, 20 mM Tris-HCl, pH 7.5; recorded for 360 s. In general terms: BRET reads energy transfer from a luciferase to a nearby fluorophore.

Turning to “ΔCH2 YidC mutant (residues 399–415 deleted) (from UniProt P25714 1-548)”, the koff in experiment [1] was found to be 0.07 s⁻¹.

Turning to “R366E YidC mutant (from UniProt P25714 1-548) (enzyme)”, in experiment [2], the fraction of (un-)binding forces >50 pN is 10.5% and the mean (un-)binding force was 31.5 pN. In experiment [3], this molecule came in with a mean (un-)binding force of 29.1 pN. Also, the off-rate (koff) in experiment [1] is 0.03 s⁻¹.

Consider “wild-type (wt) YidC insertase from E. coli (from UniProt P25714 1-548)”, for which, in experiment [4], the koff was determined as 2 s⁻¹.

Consider “ΔCH2 YidC mutant (residues 399–415 deleted) (from UniProt P25714 1-548) (enzyme)”, for which the fraction of (un-)binding forces >50 pN in experiment [2] turned out to be 22.2%. The results for the mean (un-)binding force in experiment [2] and in experiment [3] were 41 pN and 35.4 pN, respectively.

As to “wild-type (wt) YidC insertase from E. coli (from UniProt P25714 1-548) (enzyme)”, in experiment [2], the fraction of (un-)binding forces >50 pN turned out to be 48.7% and the mean (un-)binding force was 47.6 pN. For the same molecule, the mean (un-)binding force in experiment [5] amounted to 50.8 pN. In experiment [4], the lifetime of the bond (reciprocal of k0) amounted to 0.5 s. Also, the mean (un-)binding force in experiment [3] was 29.5 pN. In experiment [1], the koff is 0.03 s⁻¹ and the lifetime of the bond (reciprocal of k0) was determined as 33 s. In experiment [6], this molecule yielded a bond lifetime at zero force (t0, Bell model) of 0.32 s; a fraction of force-time curves with interaction events of 2 to 4%; a koff of 3.1 s⁻¹.

B1: R366E YidC S405C labelled with Atto647N (enzyme)
chain: MDSQRNLLVIALLFVSFMIWQAWEQDKNPQPQAQQTTQTTTTAAGSAADQGVPASGQGKLISVKTDVLDLTINTRGGDVEQALLPAYPKELNSTQPFQLLETSPQFIYQAQSGLTGRDGPDNPANGPRPLYNVEKDAYVLAEGQNELQVPMTYTDAAGNTFTKTFVLKRGDYAVNVNYNVQNAGEKPLEISSFGQLKQSITLPPHLDTGSSNFALHTFRGAAYSTPDEKYEKYKFDTIADNENLNISSKGGWVAMLQQYFATAWIPHNDGTNNFYTANLGNGIAAIGYKSQPVLVQPGQTGAMNSTLWVGPEIQDKMAAVAPHLDLTVDYGWLWFISQPLFKLLKWIHSFVGNWGFSIIIITFIVEGIMYPLTKAQYTSMAKMRMLQPKIQAMRERLGDDKQRICQEMMALYKAEKVNPLGGSFPLLIQMPIFLALYYMLMGSVELRQAPFALWIHDLSAQDPYYILPILMGVTMFFIQKMSPTTVTDPMQQKIMTFMPVIFTVFFLWFPSGLVLYYIVSNLVTIIQQQLIYRGLEKRGLHSREKKKS
modifications: Atto647N (acceptor) on cysteine S405C in the cytoplasmic α-helical hairpin
B1: in experiment [7], the FRET events relative to wt YidC within 360 s is 25%.

By koff is commonly meant the rate constant with which the complex falls apart. Read a high koff as fast dissociation.

Source of the values: publication PMC8648943.
